Laboratory results: article PMC5407808

Legend:
[1] = molecular target: HexA-6His (Photorhabdus luminescens TT01); assay: SEC + other: dynamic light scattering; gel filtration of purified HexA-6His on a Superdex 200 column; DLS of the HexA peak fraction from gel filtration
[2] = system: HexA-6His (Photorhabdus luminescens TT01); assay: SPR; conditions: 5' biotin on forward primer (PpcfA-Btn_fwd; position implied); SPR (Biacore T200, streptavidin chip, ~300 RU DNA): HBS-EP+ 10 mM HEPES pH 7.4, 150 mM NaCl, 3 mM EDTA, 0.05% Surfactant P20, 25 C …

| Substance | stoichiometry N [1] | Kd [2] [nM] |
| --- | --- | --- |
| HexA-6His (natural protein) | 4 |  |
| PpcfA promoter fragment (400 bp) |  | 1300 |
